Positions of bridges follow the written chain, without caps; N, C: chain ends. Non-standard residues stand in square brackets, D forms with d. Groups on a side chain read outwards from the residue. int‑CC7 = mannose-6-phosphonate M6PR ligand; Bip = N[C@@H](Cc1ccc(-c2ccccc2)cc1)C(=O)O; NMeA = CN[C@@H](C)C(=O)O
B1: Bifunctional compound (BFC-3) (peptide)
peptide: {CH2CO}-FVPTT[Bip][NMeA][Bip][NMeA]EAPCGK-NH2
modifications: thioether N-13; not fully specified (residue 15); also: further groups not given here

target: Purified recombinant full length human PCSK9 with C-terminal biotinylated Avitag (human) (UniProt Q8NBP7); assay: SPR, ProteOn XPR36; biotinylated human PCSK9 on NeutrAvidin NLC chip
Sequence (Q8NBP7 31-692): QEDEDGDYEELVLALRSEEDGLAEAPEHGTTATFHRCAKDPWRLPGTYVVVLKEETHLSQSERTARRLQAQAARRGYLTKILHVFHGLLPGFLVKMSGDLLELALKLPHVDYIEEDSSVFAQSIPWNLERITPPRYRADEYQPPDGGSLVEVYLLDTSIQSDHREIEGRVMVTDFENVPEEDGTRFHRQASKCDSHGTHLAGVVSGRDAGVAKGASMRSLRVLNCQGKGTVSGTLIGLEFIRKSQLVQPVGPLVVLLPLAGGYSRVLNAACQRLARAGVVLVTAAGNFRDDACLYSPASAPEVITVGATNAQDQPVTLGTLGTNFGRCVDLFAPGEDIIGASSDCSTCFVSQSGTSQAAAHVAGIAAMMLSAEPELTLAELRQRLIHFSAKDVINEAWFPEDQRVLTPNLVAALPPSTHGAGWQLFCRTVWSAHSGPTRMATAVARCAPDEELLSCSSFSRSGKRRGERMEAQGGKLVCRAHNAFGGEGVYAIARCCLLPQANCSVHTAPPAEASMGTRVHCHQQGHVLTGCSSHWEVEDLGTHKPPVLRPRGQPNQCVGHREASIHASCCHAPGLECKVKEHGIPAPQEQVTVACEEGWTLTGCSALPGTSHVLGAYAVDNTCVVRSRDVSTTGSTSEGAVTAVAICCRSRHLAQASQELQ

| Kd | Binder |
| --- | --- |
| 7.4 nM | {CH2CO}-FVPTT[Bip][NMeA][Bip][NMeA]EAPCGK([Lys(4-oxopentanoyl)-int‑CC7])-NH2 (thioether N-13; not fully specified; also: further groups not given here) [Bifunctional compound (BFC-9)] |
| 4.9 nM | {CH2CO}-FVPTT[Bip][NMeA][Bip][NMeA]EAPCGK([Lys(4-oxopentanoyl)-int‑CC7])-NH2 (thioether N-13; not fully specified; also: further groups not given here) [Bifunctional compound (BFC-8)] |
| 7.7 nM | B1 |
